T1: human SEMA4D, full length, on CHO-K1 cells (CHO-K1 hSEMA4D) (human, UniProt Q92854 22-862)
T1 construct: whole, on cells; also called human SEMA4D recombinant cells
T1 sequence (looked up): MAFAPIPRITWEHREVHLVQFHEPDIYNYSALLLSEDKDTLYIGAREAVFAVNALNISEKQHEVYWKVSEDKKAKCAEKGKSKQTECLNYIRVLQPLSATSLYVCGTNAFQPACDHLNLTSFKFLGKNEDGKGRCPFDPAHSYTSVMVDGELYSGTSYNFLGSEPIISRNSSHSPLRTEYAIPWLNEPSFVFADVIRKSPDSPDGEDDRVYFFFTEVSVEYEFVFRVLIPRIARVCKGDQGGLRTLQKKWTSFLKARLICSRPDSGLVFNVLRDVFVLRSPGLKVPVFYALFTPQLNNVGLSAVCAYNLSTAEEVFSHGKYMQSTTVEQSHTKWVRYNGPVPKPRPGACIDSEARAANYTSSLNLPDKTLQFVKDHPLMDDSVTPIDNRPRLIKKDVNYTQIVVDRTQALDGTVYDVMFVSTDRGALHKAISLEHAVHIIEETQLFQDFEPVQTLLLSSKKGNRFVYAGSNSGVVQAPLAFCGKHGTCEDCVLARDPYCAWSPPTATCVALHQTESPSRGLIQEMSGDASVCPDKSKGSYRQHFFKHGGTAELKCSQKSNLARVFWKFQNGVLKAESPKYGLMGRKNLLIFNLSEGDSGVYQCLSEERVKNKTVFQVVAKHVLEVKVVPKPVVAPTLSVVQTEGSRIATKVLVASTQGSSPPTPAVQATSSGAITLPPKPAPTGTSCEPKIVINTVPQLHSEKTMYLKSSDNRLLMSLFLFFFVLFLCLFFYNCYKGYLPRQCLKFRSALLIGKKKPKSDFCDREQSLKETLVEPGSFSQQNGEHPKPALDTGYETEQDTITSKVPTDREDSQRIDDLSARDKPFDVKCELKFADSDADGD

T2: hSEMA4D ECD-His (His-tagged human SEMA4D protein extracellular domain, Met22-Arg734) (human, UniProt Q92854 22-734)
T2 construct: Expressed in CHO-S cells, purified on Ni column; also called protein immunogen; immunogen A; not shown: His tag of the pCP vector
T2 sequence: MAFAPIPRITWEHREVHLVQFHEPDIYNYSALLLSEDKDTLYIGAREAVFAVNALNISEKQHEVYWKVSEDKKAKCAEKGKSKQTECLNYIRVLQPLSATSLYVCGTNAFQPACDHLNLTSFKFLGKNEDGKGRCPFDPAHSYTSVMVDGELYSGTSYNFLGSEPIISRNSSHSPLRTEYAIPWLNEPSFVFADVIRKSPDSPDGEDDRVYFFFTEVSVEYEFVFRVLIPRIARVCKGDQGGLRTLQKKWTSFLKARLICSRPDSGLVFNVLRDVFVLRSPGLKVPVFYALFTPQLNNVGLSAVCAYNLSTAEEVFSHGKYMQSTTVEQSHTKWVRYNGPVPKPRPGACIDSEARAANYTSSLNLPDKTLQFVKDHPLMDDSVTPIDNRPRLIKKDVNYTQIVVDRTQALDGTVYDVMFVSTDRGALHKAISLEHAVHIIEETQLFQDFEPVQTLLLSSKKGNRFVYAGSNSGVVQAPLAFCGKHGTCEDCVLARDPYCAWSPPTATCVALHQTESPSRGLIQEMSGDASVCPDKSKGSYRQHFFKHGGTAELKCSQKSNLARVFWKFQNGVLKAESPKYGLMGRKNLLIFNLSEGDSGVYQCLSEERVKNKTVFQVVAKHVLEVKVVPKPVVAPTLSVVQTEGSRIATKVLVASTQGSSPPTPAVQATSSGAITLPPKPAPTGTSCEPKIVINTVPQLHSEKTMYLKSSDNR


Tests used:
[1] = biological target: T1, human SEMA4D, full length, on CHO-K1 …; test: FACS, CHO-K1 hSEMA4D cells; Ab 0.0213 nM
Protocol: The medium was aspirated, the cells were washed once with PBS buffer (purchased from Invitrogen), and then treated with cell dissociation fluid (TrypLE™ Express Enzyme, purchased from Life technology), and the cells were collected. After the cells counted, the cells were washed once with PBS phosphate buffer, and diluted to 3×10⁶ cells per milliliter, and added to the 96-well FACS reaction plate as 100 μL per well. 2% (w/w) fetal calf serum was added to PBS phosphate buffer as FACS buffer, with which the cells were washed once by centrifugation at 2000 rpm 4° C. 100 μL of diluted and purified leading antibodies was added to each well and the plate was incubated for 1 hour on ice. […] Cells were washed 2 times by centrifugation with FACS buffer. The cells were suspended with 200 μL of FACS buffer, and FACS (FACS Verse, purchased from BD) was used to detect and analyze the results.

[2] = biological target: T2, hSEMA4D ECD-His (His-tagged human …); test: ELISA, coated hSEMA4D ECD-His; Ab 0.00213 nM
Protocol: (§1) First, hSEMA4D ECD-His was diluted with PBS to a final concentration of 1.0 μg/mL, and then was added to a 96-well ELISA plate, 100 μL per well, sealed with plastic film and incubated overnight at 4° C. On the next day, the plate was washed with a plate washing solution, that is, PBS buffer containing 0.05% (v/v) Tween20, for 4 times, and added with blocking solution, that is, PBS buffer containing 0.05% (v/v) Tween20 and 2% (w/w) BSA, blocked at 37° C. for 1 hour. The blocking solution was poured out and the plate was washed 4 times with the plate washing solution. 100 μL of the purified leading antibodies obtained in Examples 1 and 2 was added to each well. After incubation at 37° C. for 1 hour, the plate was washed 4 times with a plate washing solution. 100 μL of horseradish peroxidase (HRP) labeled secondary antibody (purchased from Sigma) was added at a dilution of 1:10000 to each well, and the plate was incubated at 37° C. for 1 hour, and washed 4 times with a plate washing solution. 100 μL TMB substrate was added to each well, and the plate was incubated at room temperature for 5 minutes, and added with 100 μL stop solution (1.0N HCl) to each well. A microplate reader (SpectraMax M5e, purchased from Molecular Device) was used to read the A450 nm value. […] Wherein, the data in the table was the OD450 nm value.

[3] = biological target: T2, hSEMA4D ECD-His (His-tagged human …); test: ELISA, coated hSEMA4D ECD-His; Ab 0.00427 nM
Protocol: as §1

Row | Binder | MFI [1] | OD450 nm [2] | OD450 nm [3]
1 | 32C8F10 (antibody, V domains shown, Mouse monoclonal antibody purified from hybridoma supernatant on protein A) VH: EVQLQQSGAELVRPGASVKLSCTASGFNIKDEYIHWVKQRPEQGLEWIGWIDPANGHTEYASRFQAKATITADTSSNTAYLQLSSLTSEDTAVYYCTTGDYDGFAYWGQGTLVTVST VL: QIVLTQSPAIMSASPGEKVTISCSARSSVSYMYWYQQKPGSSPKPWIYRTSNLASGVPARFSGSGSGTSYSLTISSMEAEDAATYYCQHYHTYPYTFGGGTKLEIK | 218 | 0.0858 | 0.0685
2 | 31C11G2 (antibody, V domains shown, Mouse monoclonal antibody purified from hybridoma supernatant on protein A) VH: EVQLQQSGAELVRPGASVKLSCTASGFNIKDEYIHWVKQRPEQGLEWIGWIDPANGHTEYASRFQAKATITADTSSNTAYLQLSSLTSEDTAVYYCTTGDYDGFVYWGQGTLVTVST VL: QIVLTQSPAIMSASPGEKVTIFCSARSSVSYMYWYQQKPGSSPKPWIYRTSNLASGVPARFSGSGSGTSYSLTISSMEAEDAATYYCQHYHTYPYTFGGGTKLEIK | 248 | 0.141 | 0.0939
3 | 37C4F7 (antibody, V domains shown, Mouse monoclonal antibody purified from hybridoma supernatant on protein A) VH: EFQLQQSGPEVVKPGASVKISCKASGYSFTDYNMNWMKQSKGKSLEWIGVINPNYGTTTYNQNFKGKATLTVDQSSSTAYMQLNSLTSEDSAVYYCARDMYYVYAYYTMDYWGQGTSVTVSS VL: DVVMTQTPLSLPVSLGDQASISCRSSQSLVHSNGHTYLHWYLQRPGQSPTLLIYKVSNRFSGVPDRFSGSGSGTDFTLKISRVEAEDLGVYFCSQGTHVPWTFGGGTKLEIK | 76.6 | 0.0673 | 0.0623

The next lines start with the values.

Row | MFI [1] | OD450 nm [2] | OD450 nm [3] | Binder
4 | 225 | 0.109 | 0.0915 | 31G10C5 (antibody, V domains shown, Mouse monoclonal antibody purified from hybridoma supernatant on protein A) VH: EVQLQQSGAELVRPGASVKLSCTASGFNIKDDYIHWVKQRPEQGLEWIGWIDPANGHIEYASNFQAKATITADTSSNTAYLQLSSLTSEDTAVYYCTTGDYDGFTYWGQGTLVTVST VL: QIVLTQSPAIMSASPGEKVTISCSARSSVSYMYWYQQKPGSSPKPWIYRTSNLASGVPARFSGSGSGTSYSLTISSMEAEDAATYYCQHYHTYPYTFGGGTKLEIK
5 | 78.7 | 0.0738 | 0.0744 | 38H2E3 (antibody, V domains shown, Mouse monoclonal antibody purified from hybridoma supernatant on protein A) VH: EFQLQQSGPEVVKPGASVKISCKASGYSFTDYNMNWMKQSKGKSLEWIGVISPDYGTTTYNQNFKDKATLTVDQSSSTAYMQLNSLTSEDSAVYYCAKDMYYVYAYYTMDYWGHGTSVTVSS VL: DVVMTQTPLSLPVSLGDQASISCRSSQSLVHSNGHTYLHWYLQRPGQSPTLLIYKVSNRFSGVPDRVSGSGSGTDFTLKISRVEAEDLGVYFCSQGTHVPRTFGGGTKLEIK
6 | 173 | 0.11 | 0.0851 | 42B7G2 (antibody, V domains shown, Mouse monoclonal antibody purified from hybridoma supernatant on protein A) VH: QVQLQQSGAELARPGASVKLSCKASGYTFTDYGISWVKQRTGQGLEWIGEIYLRNDNSYYNEKFKGKATLTADKSSNTAYMELRSLTSEDSAVYFCARWGDHGNNYEDAMDYWGQGTSVTVSS VL: DIVLTQSPASLAMSLGKRATISCRASESVSIIGSNLIHWYQQKPGQPPKLLIYHASNLETGVPARFSGSGSRTDFTLTIDPVEEDDVAIYYCLQSRKVPYTFGGGTKLEIK
7 | 101 | 0.0929 | 0.0638 | 37F11F9 (antibody, V domains shown, Mouse monoclonal antibody purified from hybridoma supernatant on protein A) VH: EVQLQQSGPVLVKPGASVKMSCKASGYTFTDYYMNWVKQSHGKSLEWIGLINPYSGGSTFNQKFKAKATLTVDKSSSSAYMDLNSLTSEDSAVYYCARVGDGYYGVTHGMDYWGQGTSVTVSS VL: DIVMTPSQKFMSTTVGDRVSITCKASQNVGTAVAWYQQKPGQSPTILIYSASNRYTGVPDRFTGSGSGTDFTLTISNMKSEDLADYFCQQYYIYPFTFAAGTKLELK

Source: patent US20220073608A1 (JIANGSU HUAIYU PHARMACEUTICAL, published 2022)
